From article doi:10.1101/2024.10.07.616643

Biological target: F-actin (rabbit skeletal muscle α-actin filaments) (rabbit) (UniProt P68135)
Assay: co-sedimentation

## F-tractinopt-mCherry (peptide)
  Kd: 8.5 µM
